From IntAct's records for PubMed 36931259

B1: 14-3-3 protein sigma (Homo sapiens), P31947 (parent)
chain: MERASLIQKAKLAEQAERYEDMAAFMKGAVEKGEELSCEERNLLSVAYKNVVGGQRAAWRVLSSIEQKSNEEGSEEKGPEVREYREKVETELQGVCDTVLGLLDSHLIKEAGDAESRVFYLKMKGDYYRYLAEVATGDDKKRIIDSARSAYQEAMDISKKEMPPTNPIRLGLALNFSVFHYEIANSPEEAISLAKTTFDEAMADLHTLSEDSYKDSTLIMQLLRDNLTLWTADNAGEEGGEAPQEPQS

Variants of: B1
Settings: with larp1_human LARP1, Q6PKG0

effect of a mutation on the interaction	Variant
decreasing interaction strength	MERASLIQKAKLAEQAERYEDMAAFMKGAVEKGEELSCEERNLLSVAYENVVGGQEAAWRVLSSIEQKSNEEGSEEKGPEVREYREKVETELQGVCDTVLGLLDSHLIKEAGDAESRVFYLKMKGDYYRYLAEVATGDDKKRIIDSARSAYQEAMDISKKEMPPTNPIRLGLALNFSDFHYEIANSPEEAISLAKTTFDEAMADLHTLSEDSYKDSTLIMQLLRDNLTLWTADNAGEEGGEAPQEPQS [K49E;R56E;V178D]

Variants of: B1
Settings: with klc3_human KLC3, Q6P597

effect of a mutation on the interaction	Variant
decreasing interaction strength	MERASLIQKAKLAEQAERYEDMAAFMKGAVEKGEELSCEERNLLSVAYENVVGGQEAAWRVLSSIEQKSNEEGSEEKGPEVREYREKVETELQGVCDTVLGLLDSHLIKEAGDAESRVFYLKMKGDYYRYLAEVATGDDKKRIIDSARSAYQEAMDISKKEMPPTNPIRLGLALNFSDFHYEIANSPEEAISLAKTTFDEAMADLHTLSEDSYKDSTLIMQLLRDNLTLWTADNAGEEGGEAPQEPQS [K49E;R56E;V178D]

Variants of: B1
Settings: with dnjb1_human DNAJB1, P25685
dnjb1_human DNAJB1, P25685, sequence (P25685 whole entry): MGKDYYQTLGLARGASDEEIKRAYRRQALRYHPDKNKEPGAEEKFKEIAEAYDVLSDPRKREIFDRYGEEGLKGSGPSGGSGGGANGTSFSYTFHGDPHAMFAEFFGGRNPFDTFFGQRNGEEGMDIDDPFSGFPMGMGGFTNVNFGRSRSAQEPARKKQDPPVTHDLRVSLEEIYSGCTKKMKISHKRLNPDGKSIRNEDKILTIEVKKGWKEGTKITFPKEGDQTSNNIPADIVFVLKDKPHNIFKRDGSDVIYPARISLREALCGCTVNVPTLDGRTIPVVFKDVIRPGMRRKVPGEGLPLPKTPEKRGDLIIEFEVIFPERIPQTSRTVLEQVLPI

effect of a mutation on the interaction	Variant
decreasing interaction strength	MERASLIQKAKLAEQAERYEDMAAFMKGAVEKGEELSCEERNLLSVAYENVVGGQEAAWRVLSSIEQKSNEEGSEEKGPEVREYREKVETELQGVCDTVLGLLDSHLIKEAGDAESRVFYLKMKGDYYRYLAEVATGDDKKRIIDSARSAYQEAMDISKKEMPPTNPIRLGLALNFSDFHYEIANSPEEAISLAKTTFDEAMADLHTLSEDSYKDSTLIMQLLRDNLTLWTADNAGEEGGEAPQEPQS [K49E;R56E;V178D]

Variants of: B1
Settings: with wee1_human WEE1, P30291
wee1_human WEE1, P30291, sequence (P30291 whole entry, looked up): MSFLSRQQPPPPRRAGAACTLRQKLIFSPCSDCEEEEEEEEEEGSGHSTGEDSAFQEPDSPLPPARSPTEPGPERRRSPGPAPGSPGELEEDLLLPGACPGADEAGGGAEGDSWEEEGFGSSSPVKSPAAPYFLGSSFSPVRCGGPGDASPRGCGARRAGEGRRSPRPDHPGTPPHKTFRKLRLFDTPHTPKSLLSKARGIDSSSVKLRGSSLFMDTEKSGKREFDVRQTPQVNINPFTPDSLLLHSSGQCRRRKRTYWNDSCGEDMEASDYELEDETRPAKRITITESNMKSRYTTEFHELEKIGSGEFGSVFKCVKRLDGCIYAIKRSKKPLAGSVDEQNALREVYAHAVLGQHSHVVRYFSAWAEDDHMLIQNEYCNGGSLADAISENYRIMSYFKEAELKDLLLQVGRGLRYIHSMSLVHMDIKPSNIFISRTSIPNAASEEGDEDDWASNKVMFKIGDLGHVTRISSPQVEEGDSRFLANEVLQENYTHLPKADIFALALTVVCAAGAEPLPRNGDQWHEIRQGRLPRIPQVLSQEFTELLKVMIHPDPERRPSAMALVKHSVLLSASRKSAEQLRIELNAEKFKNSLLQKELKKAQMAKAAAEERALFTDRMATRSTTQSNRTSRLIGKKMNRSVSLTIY

effect of a mutation on the interaction	Variant
decreasing interaction strength	MERASLIQKAKLAEQAERYEDMAAFMKGAVEKGEELSCEERNLLSVAYENVVGGQEAAWRVLSSIEQKSNEEGSEEKGPEVREYREKVETELQGVCDTVLGLLDSHLIKEAGDAESRVFYLKMKGDYYRYLAEVATGDDKKRIIDSARSAYQEAMDISKKEMPPTNPIRLGLALNFSDFHYEIANSPEEAISLAKTTFDEAMADLHTLSEDSYKDSTLIMQLLRDNLTLWTADNAGEEGGEAPQEPQS [K49E;R56E;V178D]

Variants of: B1
Settings: with grip1_human GRIP1, Q9Y3R0

effect of a mutation on the interaction	Variant
decreasing interaction strength	MERASLIQKAKLAEQAERYEDMAAFMKGAVEKGEELSCEERNLLSVAYENVVGGQEAAWRVLSSIEQKSNEEGSEEKGPEVREYREKVETELQGVCDTVLGLLDSHLIKEAGDAESRVFYLKMKGDYYRYLAEVATGDDKKRIIDSARSAYQEAMDISKKEMPPTNPIRLGLALNFSDFHYEIANSPEEAISLAKTTFDEAMADLHTLSEDSYKDSTLIMQLLRDNLTLWTADNAGEEGGEAPQEPQS [K49E;R56E;V178D]

Variants of: B1
Settings: with KIAA0930, Q6ICG6

effect of a mutation on the interaction	Variant
decreasing interaction strength	MERASLIQKAKLAEQAERYEDMAAFMKGAVEKGEELSCEERNLLSVAYENVVGGQEAAWRVLSSIEQKSNEEGSEEKGPEVREYREKVETELQGVCDTVLGLLDSHLIKEAGDAESRVFYLKMKGDYYRYLAEVATGDDKKRIIDSARSAYQEAMDISKKEMPPTNPIRLGLALNFSDFHYEIANSPEEAISLAKTTFDEAMADLHTLSEDSYKDSTLIMQLLRDNLTLWTADNAGEEGGEAPQEPQS [K49E;R56E;V178D]

Variants of: B1
Settings: with ablm1_human ABLIM1, O14639

effect of a mutation on the interaction	Variant
decreasing interaction strength	MERASLIQKAKLAEQAERYEDMAAFMKGAVEKGEELSCEERNLLSVAYENVVGGQEAAWRVLSSIEQKSNEEGSEEKGPEVREYREKVETELQGVCDTVLGLLDSHLIKEAGDAESRVFYLKMKGDYYRYLAEVATGDDKKRIIDSARSAYQEAMDISKKEMPPTNPIRLGLALNFSDFHYEIANSPEEAISLAKTTFDEAMADLHTLSEDSYKDSTLIMQLLRDNLTLWTADNAGEEGGEAPQEPQS [K49E;R56E;V178D]

Variants of: B1
Settings: with baip2_human BAIAP2, Q9UQB8
baip2_human BAIAP2, Q9UQB8, sequence (Q9UQB8 whole entry): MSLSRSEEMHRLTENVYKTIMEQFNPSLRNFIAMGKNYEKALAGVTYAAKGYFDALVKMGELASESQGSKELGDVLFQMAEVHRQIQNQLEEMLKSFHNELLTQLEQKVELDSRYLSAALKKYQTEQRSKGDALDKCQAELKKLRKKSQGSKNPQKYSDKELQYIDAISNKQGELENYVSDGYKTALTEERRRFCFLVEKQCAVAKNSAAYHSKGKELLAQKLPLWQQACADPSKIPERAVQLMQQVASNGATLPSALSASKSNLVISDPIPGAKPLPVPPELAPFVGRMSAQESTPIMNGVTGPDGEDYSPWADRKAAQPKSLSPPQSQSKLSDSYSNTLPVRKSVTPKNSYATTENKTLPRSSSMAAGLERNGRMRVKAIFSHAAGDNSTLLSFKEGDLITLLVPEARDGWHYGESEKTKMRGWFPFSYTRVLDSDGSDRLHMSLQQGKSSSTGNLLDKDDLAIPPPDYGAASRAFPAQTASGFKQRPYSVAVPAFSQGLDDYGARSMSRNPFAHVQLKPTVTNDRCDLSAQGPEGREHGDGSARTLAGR

effect of a mutation on the interaction	Variant
decreasing interaction strength	MERASLIQKAKLAEQAERYEDMAAFMKGAVEKGEELSCEERNLLSVAYENVVGGQEAAWRVLSSIEQKSNEEGSEEKGPEVREYREKVETELQGVCDTVLGLLDSHLIKEAGDAESRVFYLKMKGDYYRYLAEVATGDDKKRIIDSARSAYQEAMDISKKEMPPTNPIRLGLALNFSDFHYEIANSPEEAISLAKTTFDEAMADLHTLSEDSYKDSTLIMQLLRDNLTLWTADNAGEEGGEAPQEPQS [K49E;R56E;V178D]

Variants of: B1
Settings: with nav1_human NAV1, Q8NEY1
nav1_human NAV1, Q8NEY1, sequence (Q8NEY1 whole entry): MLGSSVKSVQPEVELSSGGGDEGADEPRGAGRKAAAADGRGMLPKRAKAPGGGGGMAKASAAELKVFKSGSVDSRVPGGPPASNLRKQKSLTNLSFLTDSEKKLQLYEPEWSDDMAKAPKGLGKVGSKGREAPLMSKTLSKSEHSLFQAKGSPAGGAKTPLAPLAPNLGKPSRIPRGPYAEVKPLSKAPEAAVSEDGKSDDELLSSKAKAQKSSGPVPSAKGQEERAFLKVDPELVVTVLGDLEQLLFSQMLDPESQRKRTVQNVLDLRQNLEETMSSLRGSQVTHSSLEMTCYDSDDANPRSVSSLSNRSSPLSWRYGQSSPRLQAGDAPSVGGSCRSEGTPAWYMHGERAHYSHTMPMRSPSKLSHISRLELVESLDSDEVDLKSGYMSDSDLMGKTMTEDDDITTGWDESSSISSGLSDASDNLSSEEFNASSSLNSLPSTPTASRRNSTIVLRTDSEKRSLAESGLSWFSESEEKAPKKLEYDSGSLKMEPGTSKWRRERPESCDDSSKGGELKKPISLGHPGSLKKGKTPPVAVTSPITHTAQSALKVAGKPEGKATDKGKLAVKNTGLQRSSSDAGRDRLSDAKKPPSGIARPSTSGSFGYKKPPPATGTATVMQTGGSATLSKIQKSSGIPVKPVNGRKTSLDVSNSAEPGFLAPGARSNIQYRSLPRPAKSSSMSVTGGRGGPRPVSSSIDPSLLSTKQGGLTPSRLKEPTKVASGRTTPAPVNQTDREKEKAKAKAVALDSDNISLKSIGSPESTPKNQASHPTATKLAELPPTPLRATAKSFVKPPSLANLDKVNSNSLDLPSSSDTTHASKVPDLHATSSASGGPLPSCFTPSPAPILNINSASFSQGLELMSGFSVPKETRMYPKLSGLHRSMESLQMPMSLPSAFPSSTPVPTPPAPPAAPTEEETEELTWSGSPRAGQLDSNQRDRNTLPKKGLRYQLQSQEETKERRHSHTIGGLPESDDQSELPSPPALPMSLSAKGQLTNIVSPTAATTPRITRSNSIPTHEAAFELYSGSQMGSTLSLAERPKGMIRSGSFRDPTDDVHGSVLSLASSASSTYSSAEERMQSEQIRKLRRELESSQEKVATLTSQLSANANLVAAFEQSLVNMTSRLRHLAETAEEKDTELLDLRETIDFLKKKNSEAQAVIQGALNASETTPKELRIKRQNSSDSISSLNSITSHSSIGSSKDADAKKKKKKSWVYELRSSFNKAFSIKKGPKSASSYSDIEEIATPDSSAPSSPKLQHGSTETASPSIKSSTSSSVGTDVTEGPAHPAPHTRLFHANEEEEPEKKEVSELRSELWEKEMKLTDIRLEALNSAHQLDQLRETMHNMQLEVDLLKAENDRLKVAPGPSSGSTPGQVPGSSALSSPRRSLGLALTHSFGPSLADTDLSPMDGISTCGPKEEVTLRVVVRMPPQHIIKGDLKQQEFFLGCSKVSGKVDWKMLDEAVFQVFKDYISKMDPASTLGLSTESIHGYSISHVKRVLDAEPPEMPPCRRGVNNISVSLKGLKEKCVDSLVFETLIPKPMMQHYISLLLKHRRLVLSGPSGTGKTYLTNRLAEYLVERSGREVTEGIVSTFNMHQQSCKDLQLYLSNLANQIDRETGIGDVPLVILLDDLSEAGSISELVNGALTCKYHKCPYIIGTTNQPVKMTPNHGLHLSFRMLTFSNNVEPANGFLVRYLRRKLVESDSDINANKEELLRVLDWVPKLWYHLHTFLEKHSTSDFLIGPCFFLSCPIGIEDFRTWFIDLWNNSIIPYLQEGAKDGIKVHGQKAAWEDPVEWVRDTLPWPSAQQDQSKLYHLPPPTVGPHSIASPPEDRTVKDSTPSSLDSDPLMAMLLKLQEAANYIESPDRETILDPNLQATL

effect of a mutation on the interaction	Variant
decreasing interaction strength	MERASLIQKAKLAEQAERYEDMAAFMKGAVEKGEELSCEERNLLSVAYENVVGGQEAAWRVLSSIEQKSNEEGSEEKGPEVREYREKVETELQGVCDTVLGLLDSHLIKEAGDAESRVFYLKMKGDYYRYLAEVATGDDKKRIIDSARSAYQEAMDISKKEMPPTNPIRLGLALNFSDFHYEIANSPEEAISLAKTTFDEAMADLHTLSEDSYKDSTLIMQLLRDNLTLWTADNAGEEGGEAPQEPQS [K49E;R56E;V178D]

Variants of: B1
Settings: with pcm1_human PCM1, Q15154

effect of a mutation on the interaction	Variant
decreasing interaction strength	MERASLIQKAKLAEQAERYEDMAAFMKGAVEKGEELSCEERNLLSVAYENVVGGQEAAWRVLSSIEQKSNEEGSEEKGPEVREYREKVETELQGVCDTVLGLLDSHLIKEAGDAESRVFYLKMKGDYYRYLAEVATGDDKKRIIDSARSAYQEAMDISKKEMPPTNPIRLGLALNFSDFHYEIANSPEEAISLAKTTFDEAMADLHTLSEDSYKDSTLIMQLLRDNLTLWTADNAGEEGGEAPQEPQS [K49E;R56E;V178D]

Variants of: B1
Settings: with EPB41L2, O43491

effect of a mutation on the interaction	Variant
decreasing interaction strength	MERASLIQKAKLAEQAERYEDMAAFMKGAVEKGEELSCEERNLLSVAYENVVGGQEAAWRVLSSIEQKSNEEGSEEKGPEVREYREKVETELQGVCDTVLGLLDSHLIKEAGDAESRVFYLKMKGDYYRYLAEVATGDDKKRIIDSARSAYQEAMDISKKEMPPTNPIRLGLALNFSDFHYEIANSPEEAISLAKTTFDEAMADLHTLSEDSYKDSTLIMQLLRDNLTLWTADNAGEEGGEAPQEPQS [K49E;R56E;V178D]

Variants of: B1
Settings: with kif1b_human KIF1B

effect of a mutation on the interaction	Variant
decreasing interaction strength	MERASLIQKAKLAEQAERYEDMAAFMKGAVEKGEELSCEERNLLSVAYENVVGGQEAAWRVLSSIEQKSNEEGSEEKGPEVREYREKVETELQGVCDTVLGLLDSHLIKEAGDAESRVFYLKMKGDYYRYLAEVATGDDKKRIIDSARSAYQEAMDISKKEMPPTNPIRLGLALNFSDFHYEIANSPEEAISLAKTTFDEAMADLHTLSEDSYKDSTLIMQLLRDNLTLWTADNAGEEGGEAPQEPQS [K49E;R56E;V178D]

Variants of: B1
Settings: with clap1_human CLASP1, Q7Z460
clap1_human CLASP1, Q7Z460, sequence (Q7Z460 whole entry): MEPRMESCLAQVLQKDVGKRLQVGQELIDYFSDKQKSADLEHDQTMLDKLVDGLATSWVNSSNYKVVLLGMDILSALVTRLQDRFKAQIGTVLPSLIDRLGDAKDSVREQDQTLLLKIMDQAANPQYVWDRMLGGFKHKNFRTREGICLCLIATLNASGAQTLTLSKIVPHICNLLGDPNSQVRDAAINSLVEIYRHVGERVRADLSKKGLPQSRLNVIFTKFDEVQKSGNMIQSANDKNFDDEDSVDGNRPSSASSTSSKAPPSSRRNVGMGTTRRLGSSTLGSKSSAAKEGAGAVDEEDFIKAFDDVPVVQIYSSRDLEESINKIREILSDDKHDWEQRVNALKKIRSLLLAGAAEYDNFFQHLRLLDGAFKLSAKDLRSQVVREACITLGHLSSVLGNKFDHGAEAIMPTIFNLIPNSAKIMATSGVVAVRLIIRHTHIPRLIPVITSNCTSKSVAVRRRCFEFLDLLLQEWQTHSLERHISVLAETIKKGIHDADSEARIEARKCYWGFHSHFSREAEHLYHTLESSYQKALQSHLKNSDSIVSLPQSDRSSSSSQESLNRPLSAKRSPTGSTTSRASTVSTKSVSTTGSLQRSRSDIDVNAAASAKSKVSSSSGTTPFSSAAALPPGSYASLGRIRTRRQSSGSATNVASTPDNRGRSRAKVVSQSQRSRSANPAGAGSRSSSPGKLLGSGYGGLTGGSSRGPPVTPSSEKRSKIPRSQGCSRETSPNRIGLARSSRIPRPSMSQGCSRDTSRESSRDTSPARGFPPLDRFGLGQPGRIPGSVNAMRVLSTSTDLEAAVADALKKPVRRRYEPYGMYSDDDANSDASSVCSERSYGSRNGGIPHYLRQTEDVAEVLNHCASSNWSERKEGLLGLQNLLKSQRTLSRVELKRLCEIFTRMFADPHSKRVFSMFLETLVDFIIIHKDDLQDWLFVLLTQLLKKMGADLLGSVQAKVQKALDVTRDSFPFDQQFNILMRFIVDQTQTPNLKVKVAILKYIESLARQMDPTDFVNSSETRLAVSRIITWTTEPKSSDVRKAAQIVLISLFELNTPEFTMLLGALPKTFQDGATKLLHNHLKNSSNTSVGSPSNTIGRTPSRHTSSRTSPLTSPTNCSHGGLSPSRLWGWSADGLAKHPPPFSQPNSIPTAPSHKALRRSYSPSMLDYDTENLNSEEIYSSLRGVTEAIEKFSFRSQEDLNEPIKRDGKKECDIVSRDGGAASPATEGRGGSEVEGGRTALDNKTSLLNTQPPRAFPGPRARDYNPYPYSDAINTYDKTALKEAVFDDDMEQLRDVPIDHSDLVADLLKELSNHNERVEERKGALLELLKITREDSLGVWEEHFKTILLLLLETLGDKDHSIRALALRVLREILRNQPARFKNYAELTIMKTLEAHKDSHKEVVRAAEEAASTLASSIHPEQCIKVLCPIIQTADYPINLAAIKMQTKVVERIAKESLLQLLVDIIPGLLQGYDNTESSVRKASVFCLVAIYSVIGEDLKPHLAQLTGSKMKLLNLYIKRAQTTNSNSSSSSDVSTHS

effect of a mutation on the interaction	Variant
decreasing interaction strength	MERASLIQKAKLAEQAERYEDMAAFMKGAVEKGEELSCEERNLLSVAYENVVGGQEAAWRVLSSIEQKSNEEGSEEKGPEVREYREKVETELQGVCDTVLGLLDSHLIKEAGDAESRVFYLKMKGDYYRYLAEVATGDDKKRIIDSARSAYQEAMDISKKEMPPTNPIRLGLALNFSDFHYEIANSPEEAISLAKTTFDEAMADLHTLSEDSYKDSTLIMQLLRDNLTLWTADNAGEEGGEAPQEPQS [K49E;R56E;V178D]

Variants of: B1
Settings: with pum1_human PUM1, Q14671

effect of a mutation on the interaction	Variant
decreasing interaction strength	MERASLIQKAKLAEQAERYEDMAAFMKGAVEKGEELSCEERNLLSVAYENVVGGQEAAWRVLSSIEQKSNEEGSEEKGPEVREYREKVETELQGVCDTVLGLLDSHLIKEAGDAESRVFYLKMKGDYYRYLAEVATGDDKKRIIDSARSAYQEAMDISKKEMPPTNPIRLGLALNFSDFHYEIANSPEEAISLAKTTFDEAMADLHTLSEDSYKDSTLIMQLLRDNLTLWTADNAGEEGGEAPQEPQS [K49E;R56E;V178D]

Variants of: B1
Settings: with klc2_human KLC2, Q9H0B6

effect of a mutation on the interaction	Variant
decreasing interaction strength	MERASLIQKAKLAEQAERYEDMAAFMKGAVEKGEELSCEERNLLSVAYENVVGGQEAAWRVLSSIEQKSNEEGSEEKGPEVREYREKVETELQGVCDTVLGLLDSHLIKEAGDAESRVFYLKMKGDYYRYLAEVATGDDKKRIIDSARSAYQEAMDISKKEMPPTNPIRLGLALNFSDFHYEIANSPEEAISLAKTTFDEAMADLHTLSEDSYKDSTLIMQLLRDNLTLWTADNAGEEGGEAPQEPQS [K49E;R56E;V178D]
